Patent US8013123B2 (B.R.A.H.M.S. GmbH, priority 2004, dated 2011)
Ends that are not written are not given here.

Tests used:
[1] = Stability of proenkephalin fragments and enkephalins ex vivo (plasma, liquor); type: in vitro ADME
Source text: In one embodiment the invention is based on and uses the discovered long term stability of proenkephalin and enkephalin-fp ex vivo in plasma (FIG. 3a). […] Proenkephalin and enkephalin-fp are stable as well in liquor.

B- and T-lymphocytes = settings: cited from earlier work
[2] = tested on: gram-negative bacteria like Escherichia coli; settings: cited from earlier work
[3] = tested on: gram-positive bacteria like Streptococcus aureus, Bacillus megaterium and Micrococcus luteus; settings: cited from earlier work

## DAEEDDSLANSSDLLKELLETGDNRERSHHQDGSDNEEEVS [enkephalin-fp]
[1]; ex vivo in plasma
  half-life: > 24 h
[1]
  stability in liquor: stable

## methionine enkephalin [Met-ENK]
B- and T-lymphocytes
  proliferation: stimulates the proliferation

B1: proenkephalin: precursor of the enkephalins, Sequence ID 1, including its fragments (protein)
chain: ECSQDCATCSYRLVRFADINFLACVMECEGKLPSLKIWETCKELLQLSKPELPQDGTSTLRENSKPEESHLLAKRYGGFMKRYGGFMKKMDELYPMEPEEEANGSEILAKRYGGFMKKNAEEDDSLANSSDLLKELLETGDNRERSHHQDGSDNEEEVSKRYGGFMRGLKRSPQLEDEAKELQKRYGGFMRRVGRPEWWMDYQKRYGGFLKRFAEALPSDEEGESYSKEVPEMEKRYGGFMRF
[1]
  stability in liquor: stable
In vivo half-life
  in vivo half-life: about 24 hours

B2: Synenkephalin: PENK-A derived peptide with antibacterial properties (peptide, UniProt P01210 25-97, looked up)
Synenkephalin: ECSQDCATCSYRLVRPADINFLACVMECEGKLPSLKIWETCKELLQLSKPELPQDGTSTLRENSKPEESHLLA
modifications: Synenkephalin
[2]
  antibacterial function / growth inhibition: antibacterial properties
[3]
  antibacterial function: antibacterial properties
